From patent US20260207779

Tested on: TALE-TadA8e(V106W) (Escherichia coli)
Assay: cell_activity
Conditions: paired TALE-TadA8e(V106W) without nickase, value is the maximum over three loci

For MT-ND1 target, the activity was less than 0.39%.

In the case of MT-ND4 target, the activity is reported as less than 0.39%.

In the case of MT-RNR2 target, the activity (barely above sequencing error) is reported as less than 0.39%.
